# Measured values taken from PMC9418451.
# Assays:
# SecYEG = SecYEG (UniProt P0AGA2); test: high-speed atomic force microscopy
# SecYEG G297LBT = SecYEG G297LBT (UniProt P0AGA2); test: FRET or BRET
occupancy of SecYEG molecules by SecA (SecYEG G297LBT),Substance,Kd (SecYEG),tau off (time constant of the periods in which SecA was bound) (SecYEG),tau on (time constant of the unbound periods until SecA rebinds) (SecYEG)
,SecA (from UniProt P10408 1-901) (natural protein),0.01 µM,1.1 s,1.7 s
10%,SecA(N95) K797C labeled with Atto488 (from UniProt P10408 1-901) (natural protein),,,
